# Results taken from IntAct's records for PubMed 15169888.
# B1: Nuclear factor NF-kappa-B p105 subunit (Homo sapiens), P19838-1 (parent)
# chain: MAEDDPYLGRPEQMFHLDPSLTHTIFNPEVFQPQMALPTDGPYLQILEQPKQRGFRFRYVCEGPSHGGLPGASSEKNKKSYPQVKICNYVGPAKVIVQLVTNGKNIHLHAHSLVGKHCEDGICTVTAGPKDMVVGFANLGILHVTKKKVFETLEARMTEACIRGYNPGLLVHPDLAYLQAEGGGDRQLGDREKELIRQAALQQTKEMDLSVVRLMFTAFLPDSTGSFTRRLEPVVSDAIYDSKAPNASNLKIVRMDRTAGCVTGGEEIYLLCDKVQKDDIQIRFYEEEENGGVWEGFGDFSPTDVHRQFAIVFKTPKYKDINITKPASVFVQLRRKSDLETSEPKPFLYYPEIKDKEEVQRKRQKLMPNFSDSFGGGSGAGAGGGGMFGSGGGGGGTGSTGPGYSFPHYGFPTYGGITFHPGTTKSNAGMKHGTMDTESKKDPEGCDKSDDKNTVNLFGKVIETTEQDQEPSEATVGNGEVTLTYATGTKEESAGVQDNLFLEKAMQLAKRHANALFDYAVTGDVKMLLAVQRHLTAVQDENGDSVLHLAIIHLHSQLVRDLLEVTSGLISDDIINMRNDLYQTPLHLAVITKQEDVVEDLLRAGADLSLLDRLGNSVLHLAAKEGHDKVLSILLKHKKAALLLDHPNGDGLNAIHLAMMSNSLPCLLLLVAAGADVNAQEQKSGRTALHLAVEHDNISLAGCLLLEGDAHVDSTTYDGTTPLHIAAGRGSTRLAALLKAAGADPLVENFEPLYDLDDSWENAGEDEGVVPGTTPLDMATSWQVFDILNGKPYEPEFTSDDLLAQGDMKQLAEDVKLQLYKLLEIPDPDKNWATLAQKLGLGILNNAFRLSPAPSKTLMDNYEVSGGTVRELVEALRQMGYTEAIEVIQAASSPVKTTSQAHSLPLSPASTRQQIDELRDSDSVCDSGVETSFRKLSFTESLTSGASLLTLNKMPHDYGQEGPLEGKI
# partner: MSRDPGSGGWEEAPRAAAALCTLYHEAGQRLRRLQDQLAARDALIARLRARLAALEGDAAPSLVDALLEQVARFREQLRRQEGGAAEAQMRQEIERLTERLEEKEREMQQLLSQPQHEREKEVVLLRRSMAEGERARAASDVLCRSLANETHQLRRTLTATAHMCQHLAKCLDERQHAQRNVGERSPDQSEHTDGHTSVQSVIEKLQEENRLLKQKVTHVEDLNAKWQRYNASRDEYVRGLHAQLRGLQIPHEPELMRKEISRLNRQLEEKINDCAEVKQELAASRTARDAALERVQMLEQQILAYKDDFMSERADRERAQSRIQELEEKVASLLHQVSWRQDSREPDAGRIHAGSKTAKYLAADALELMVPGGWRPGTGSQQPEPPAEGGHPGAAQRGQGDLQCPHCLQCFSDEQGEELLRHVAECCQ
# Variants of: B1
# Conditions: with tnip2_human TNIP2, Q8NFZ5
row,effect of a mutation on the interaction,Variant
1,disrupting interaction,L841A
